The values below come from PMC2467505.

Holding throughout (test): purified protein
Substrate in data set [1]: CCCC(C)O
To be noted: oxidation, 70°C, 50 mM glycine pH 10.5, 0.35 mM NADP+.

Substrate in data set [2]: CC(=O)CCC(C)=O
Particulars: reduction, 70°C, 0.1 M sodium phosphate pH 7.0, 0.35 mM NADPH.

Substrate in data set [3]: CC(=O)C=O
Particulars: reduction, 70°C, 0.1 M sodium phosphate pH 7.0, 0.35 mM NADPH.

Substrate in data set [4]: C[C@H](O)CC[C@H](C)O
Particulars: oxidation, 70°C, 50 mM glycine pH 10.5, 0.35 mM NADP+.

B1: AdhA (Pyrococcus furiosus; INS1A) (protein)
chain: MAKVAVITGASRGIGEAIAKALAEDGYSLALGARSVDRLEKIAKELSEKHGVEVFYDYLDVSKPESVEEFARKTLAHFGDVDVVVANAGLGYFGRLEELTEEQFHEMIEVNLLGVWRTIKAFLNSLKRTGGVAIVVTSDVSARLLPYGGGYVATKWAARALVRTFQIENPDVRFFELRPGAVDTYFGGSKAGKPKEQGYLKPEEVAEAVKYLLRLPKDVRVEELMLRSIYQKPEY
What is called Km is the substrate concentration at which the rate is half of its maximum. Usually Vmax stands for the rate approached at saturating substrate. What is called kcat/Km is the second-order rate constant that governs catalysis at low substrate concentration. Take B1: the Km stood at 30.3 ± 0.4 mM in data set [1], 56.4 ± 0.6 mM in data set [2], 1.2 ± 0.03 mM in data set [3] and 5.4 ± 0.3 mM in data set [4]. Besides, the Vmax came out at 13.1 µmol/min/mg in data set [1], 1.9 µmol/min/mg in data set [2], 10.4 µmol/min/mg in data set [3] and 12.8 µmol/min/mg in data set [4]. The kcat/Km came out at 100 M⁻¹ s⁻¹ in data set [1], 10 M⁻¹ s⁻¹ in data set [2], 3800 M⁻¹ s⁻¹ in data set [3] and 1000 M⁻¹ s⁻¹ in data set [4].
